Assay results: the supplement of paper PMC7877785
± gives the uncertainty stated by the source.

Assay: self-splicing fitness, log relative to wild type (ln ratio); higher = more splicing; Tetrahymena group I intron in knt gene, E. coli kanamycin selection, DiMSum; sequences stand for … in CUCUCU…GGAGGGAAAAGUUAUCAGGCAUGCACCUGGUAGCUAGUCUUUAAACCAAUAGAUUGCAUCGGUUUAAAAGGCAAGACCGUCAAAUUGCGGGAAAGGGGUCAACAGCCGUUCAGUACCAAGUCUCAGGGGAAACUUUGAGAUGGCCUUGCAAAGGGUAUGGUAAUAAGCUGACGGACAUGGUCCUAACCACGCAGCCAAGUCCUAAGUCAACAGAUCUUCUGUUGAUAUGGAUGCAGUUCACAGACUAAAUGUCGGUCGGGGAAGAUGUAUUCUUCUCAUAAGAUAUAGUCGGACCUCUCCUUAAUGGGAGCUAGCGGAUGAAGUGAUGCAACACUGGAGCCGCUGGGAACUAAUUUGUAUGCGAAAGUAUAUUGAUUAGUUUUGGAGUACUCGUGGUCG
Procedure, shortened: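 A randomised library covering all eight P1ex-region intron nucleotides was built with the intron in the knt kanamycin-resistance gene on pET-22b(+) and held in E. coli BL21(DE3). Cells were grown overnight at 37°C or 30°C on LB agar, with or without 25 μg/mL kanamycin, plus 100 μg/mL carbenicillin, 50 μM IPTG and 0.2% rhamnose, and pooled colonies were amplicon-sequenced on an Illumina HiSeq 2500. DiMSum fitness is the error-weighted combination of wild-type-normalised replicate fold changes, kanamycin versus none.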

| Sequence | self-splicing fitness (ln) (30 °C) | self-splicing fitness (ln) (37 °C) |
| --- | --- | --- |
| CCGUAGCAAUAUUACGCUUU | -3.52 ± 0.43 | -2.23 ± 0.49 |
| CCGUAGCAAUAUUACGGCGG | -4.06 ± 0.3 | -2.97 ± 0.26 |
| CCGUAGCAAUAUUACGGGCC | -3.55 ± 0.25 | -2.83 ± 0.32 |
| CCGUAGCAAUAUUACGGUCU | -3.01 ± 0.21 | -2.2 ± 0.18 |
| CCGUAGCAAUAUUACGGUUC | -2.21 ± 0.2 | -2.04 ± 0.26 |
| CCGUAGCAAUAUUACGGUUG | -3.89 ± 0.24 | -1.73 ± 0.19 |
| CCGUAGCAAUAUUACGUAAC | -4.68 ± 0.46 | -0.709 ± 0.24 |
| CCGUAGCAAUAUUACGUACG | -2.13 ± 0.18 | -1.83 ± 0.21 |
| CCGUAGCAAUAUUACGUAUA | -2.74 ± 0.18 | -2.72 ± 0.27 |
| CCGUAGCAAUAUUACGUCAG | -1.26 ± 0.077 | -1.55 ± 0.089 |
| CCGUAGCAAUAUUACGUCUA | -2.84 ± 0.16 | -1.92 ± 0.18 |
| CCGUAGCAAUAUUACGUGAC | -2.36 ± 0.15 | – |
| CCGUAGCAAUAUUACGUGGC | -3.76 ± 0.26 | -2.73 ± 0.26 |
| CCGUAGCAAUAUUACGUUGU | -3.87 ± 0.16 | -2.3 ± 0.18 |
| CCUAAGCAAUAUUACGAACU | -3.44 ± 0.48 | -1.99 ± 0.22 |
| CCUAAGCAAUAUUACGAAGA | -1.82 ± 0.22 | -1.82 ± 0.22 |
| CCUAAGCAAUAUUACGAUUC | -3.13 ± 0.29 | -2.6 ± 0.41 |
| CCUAAGCAAUAUUACGCACA | -4.21 ± 0.46 | -1.2 ± 0.35 |
| CCUAAGCAAUAUUACGCAGA | – | -2.34 ± 0.37 |
| CCUAAGCAAUAUUACGCCAA | -2.22 ± 0.24 | -3.27 ± 0.46 |
| CCUAAGCAAUAUUACGCCCA | -3.67 ± 0.33 | -2.02 ± 0.33 |
| CCUAAGCAAUAUUACGCCUU | -3.22 ± 0.21 | -2.79 ± 0.26 |
| CCUAAGCAAUAUUACGCGAG | -4.48 ± 0.25 | -3.56 ± 0.23 |
| CCUAAGCAAUAUUACGCUUA | -3.09 ± 0.18 | -1.97 ± 0.29 |
| CCUAAGCAAUAUUACGGAAU | -3.6 ± 0.25 | -2.48 ± 0.19 |

| Sequence | self-splicing fitness (ln) (30 °C) | self-splicing fitness (ln) (37 °C) |
| --- | --- | --- |
| CCUAAGCAAUAUUACGGAGC | -2.66 ± 0.35 | – |
| CCUAAGCAAUAUUACGGAUG | -2.08 ± 0.082 | -1.16 ± 0.085 |
| CCUAAGCAAUAUUACGGCCG | -0.351 ± 0.18 | -0.367 ± 0.22 |
| CCUAAGCAAUAUUACGGCUG | -3.49 ± 0.21 | -2.47 ± 0.3 |
| CCUAAGCAAUAUUACGGGUU | -3.52 ± 0.2 | -2.84 ± 0.2 |
| CCUAAGCAAUAUUACGGUCC | – | -2.28 ± 0.45 |
| CCUAAGCAAUAUUACGUCCG | -1.34 ± 0.11 | -0.638 ± 0.11 |
| CCUAAGCAAUAUUACGUUGU | -3.37 ± 0.16 | -2.15 ± 0.15 |
| CCUCAGCAAUAUUACGACAA | -1.92 ± 0.17 | -2.31 ± 0.25 |
| CCUCAGCAAUAUUACGAGCA | -3.04 ± 0.26 | -2.87 ± 0.25 |
| CCUCAGCAAUAUUACGAUUC | -3.88 ± 0.43 | -2.44 ± 0.49 |
| CCUCAGCAAUAUUACGCACA | -3.09 ± 0.48 | -2.02 ± 0.26 |
| CCUCAGCAAUAUUACGCCAG | -3.22 ± 0.16 | -0.883 ± 0.13 |
| CCUCAGCAAUAUUACGCCCC | – | -1.39 ± 0.35 |
| CCUCAGCAAUAUUACGCGGA | -2.68 ± 0.22 | -3.28 ± 0.26 |
| CCUCAGCAAUAUUACGCGGU | -3.37 ± 0.19 | -2.98 ± 0.33 |
| CCUCAGCAAUAUUACGCUAG | -4.45 ± 0.38 | -1.04 ± 0.22 |
| CCUCAGCAAUAUUACGGCAC | -3.55 ± 0.15 | -2 ± 0.17 |
| CCUCAGCAAUAUUACGGCCG | -2.11 ± 0.1 | -0.442 ± 0.11 |
| CCUCAGCAAUAUUACGGCGG | -3.33 ± 0.15 | -3.35 ± 0.35 |
| CCUCAGCAAUAUUACGGCUU | -1.94 ± 0.16 | -2.28 ± 0.21 |
| CCUCAGCAAUAUUACGGGGG | -4.13 ± 0.28 | -2.9 ± 0.23 |
| CCUCAGCAAUAUUACGUAUU | -4.06 ± 0.24 | -2.61 ± 0.21 |
| CCUCAGCAAUAUUACGUCAU | -3.03 ± 0.13 | -1.77 ± 0.18 |
